T1: FcγRIIb extracellular domain with C-terminal His tag (human, UniProt P31994 43-217)
T1 construct: extracellular domain; also called FcgRIIb; 2b; not shown: His tag attached to the C terminus
T1 sequence (looked up): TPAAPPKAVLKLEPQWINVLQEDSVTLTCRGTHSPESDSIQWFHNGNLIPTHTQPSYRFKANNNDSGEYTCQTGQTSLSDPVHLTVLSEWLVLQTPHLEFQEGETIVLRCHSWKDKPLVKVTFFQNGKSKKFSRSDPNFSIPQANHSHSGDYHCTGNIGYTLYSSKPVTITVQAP

B1: GpH7-A5/GpH7-B3 variant P331_04F/GpL16-k0 (He Ab) (antibody, human IgG1, kappa)
heavy 1: not shown
heavy 2: not shown
light: DIVMTQSPLSLPVTPGEPASISCQASESLVHSNRNTYLHWYLQKPGQSPQLLIYKVSNRFSGVPDRFSGSGSGTDFTLKISRVEAEDVGVYYCSQNTHVPPTFGQGTKVEIERTVAAPSVFIFPPSDEQLKSGTASVVCLLNNFYPREAKVQWKVDNALQSGNSQESVTEQDSKDSTYSLSSTLTLSKADYEKHKVYACEVTHQGLSSPVTKSFNRGEC
notes: Heterodimerized antibody with the alteration in one H chain only
B2: GpH7-A5/GpH7-B3 variant P331_06M/GpL16-k0 (He Ab) (antibody, human IgG1, kappa)
heavy 1: not shown
heavy 2: not shown
light: DIVMTQSPLSLPVTPGEPASISCQASESLVHSNRNTYLHWYLQKPGQSPQLLIYKVSNRFSGVPDRFSGSGSGTDFTLKISRVEAEDVGVYYCSQNTHVPPTFGQGTKVEIERTVAAPSVFIFPPSDEQLKSGTASVVCLLNNFYPREAKVQWKVDNALQSGNSQESVTEQDSKDSTYSLSSTLTLSKADYEKHKVYACEVTHQGLSSPVTKSFNRGEC
notes: as for B1
B3: GpH7-A5/GpH7-B3 variant P331_08L/GpL16-k0 (He Ab) (antibody, human IgG1, kappa)
heavy 1: not shown
heavy 2: not shown
light: DIVMTQSPLSLPVTPGEPASISCQASESLVHSNRNTYLHWYLQKPGQSPQLLIYKVSNRFSGVPDRFSGSGSGTDFTLKISRVEAEDVGVYYCSQNTHVPPTFGQGTKVEIERTVAAPSVFIFPPSDEQLKSGTASVVCLLNNFYPREAKVQWKVDNALQSGNSQESVTEQDSKDSTYSLSSTLTLSKADYEKHKVYACEVTHQGLSSPVTKSFNRGEC
notes: as for B1
B4: GpH7-A5/GpH7-B3 variant P331_10E/GpL16-k0 (He Ab) (antibody, human IgG1, kappa)
heavy 1: not shown
heavy 2: not shown
light: DIVMTQSPLSLPVTPGEPASISCQASESLVHSNRNTYLHWYLQKPGQSPQLLIYKVSNRFSGVPDRFSGSGSGTDFTLKISRVEAEDVGVYYCSQNTHVPPTFGQGTKVEIERTVAAPSVFIFPPSDEQLKSGTASVVCLLNNFYPREAKVQWKVDNALQSGNSQESVTEQDSKDSTYSLSSTLTLSKADYEKHKVYACEVTHQGLSSPVTKSFNRGEC
notes: as for B1
B5: GpH7-A5/GpH7-B3 variant P331_11K/GpL16-k0 (He Ab) (antibody, human IgG1, kappa)
heavy 1: not shown
heavy 2: not shown
light: DIVMTQSPLSLPVTPGEPASISCQASESLVHSNRNTYLHWYLQKPGQSPQLLIYKVSNRFSGVPDRFSGSGSGTDFTLKISRVEAEDVGVYYCSQNTHVPPTFGQGTKVEIERTVAAPSVFIFPPSDEQLKSGTASVVCLLNNFYPREAKVQWKVDNALQSGNSQESVTEQDSKDSTYSLSSTLTLSKADYEKHKVYACEVTHQGLSSPVTKSFNRGEC
notes: as for B1
B6: GpH7-A5/GpH7-B3 variant P331_14T/GpL16-k0 (He Ab) (antibody, human IgG1, kappa)
heavy 1: not shown
heavy 2: not shown
light: DIVMTQSPLSLPVTPGEPASISCQASESLVHSNRNTYLHWYLQKPGQSPQLLIYKVSNRFSGVPDRFSGSGSGTDFTLKISRVEAEDVGVYYCSQNTHVPPTFGQGTKVEIERTVAAPSVFIFPPSDEQLKSGTASVVCLLNNFYPREAKVQWKVDNALQSGNSQESVTEQDSKDSTYSLSSTLTLSKADYEKHKVYACEVTHQGLSSPVTKSFNRGEC
notes: as for B1
B7: GpH7-A5/GpH7-B3 variant P331_16H/GpL16-k0 (He Ab) (antibody, human IgG1, kappa)
heavy 1: not shown
heavy 2: not shown
light: DIVMTQSPLSLPVTPGEPASISCQASESLVHSNRNTYLHWYLQKPGQSPQLLIYKVSNRFSGVPDRFSGSGSGTDFTLKISRVEAEDVGVYYCSQNTHVPPTFGQGTKVEIERTVAAPSVFIFPPSDEQLKSGTASVVCLLNNFYPREAKVQWKVDNALQSGNSQESVTEQDSKDSTYSLSSTLTLSKADYEKHKVYACEVTHQGLSSPVTKSFNRGEC
notes: as for B1
B8: GpH7-A5/GpH7-B3 variant P331_18N/GpL16-k0 (He Ab) (antibody, human IgG1, kappa)
heavy 1: not shown
heavy 2: not shown
light: DIVMTQSPLSLPVTPGEPASISCQASESLVHSNRNTYLHWYLQKPGQSPQLLIYKVSNRFSGVPDRFSGSGSGTDFTLKISRVEAEDVGVYYCSQNTHVPPTFGQGTKVEIERTVAAPSVFIFPPSDEQLKSGTASVVCLLNNFYPREAKVQWKVDNALQSGNSQESVTEQDSKDSTYSLSSTLTLSKADYEKHKVYACEVTHQGLSSPVTKSFNRGEC
notes: as for B1
B9: GpH7-A5/GpH7-B3 variant P331_20W/GpL16-k0 (He Ab) (antibody, human IgG1, kappa)
heavy 1: not shown
heavy 2: not shown
light: DIVMTQSPLSLPVTPGEPASISCQASESLVHSNRNTYLHWYLQKPGQSPQLLIYKVSNRFSGVPDRFSGSGSGTDFTLKISRVEAEDVGVYYCSQNTHVPPTFGQGTKVEIERTVAAPSVFIFPPSDEQLKSGTASVVCLLNNFYPREAKVQWKVDNALQSGNSQESVTEQDSKDSTYSLSSTLTLSKADYEKHKVYACEVTHQGLSSPVTKSFNRGEC
notes: as for B1

Assays:
[1] = molecular target: T2, FcγRIIIa extracellular domain with C-terminal His tag (human, UniProt P08637 17-208); experiment: SPR (Biacore), antibody captured on antigen peptide chip, FcγR as analyte; relative binding
T2 construct: extracellular domain; also called FcgRIIIa; 3a; not shown: His tag attached to the C terminus
T2 sequence (P08637 17-208): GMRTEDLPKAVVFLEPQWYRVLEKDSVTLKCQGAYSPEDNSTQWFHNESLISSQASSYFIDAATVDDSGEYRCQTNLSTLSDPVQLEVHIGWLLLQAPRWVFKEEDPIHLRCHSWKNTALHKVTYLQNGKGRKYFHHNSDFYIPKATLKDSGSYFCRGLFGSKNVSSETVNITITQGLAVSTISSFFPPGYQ
Method: (§1) The heterodimerized antibodies He Abs in which one of the H chains was introduced with an alteration were assayed for their binding activities to each activating FcγR and inhibitory FcγR according to the method described in Example 4. […] The activating FcγRs in FIGS. 26, 27, 28, and 29 are FcγRIa, FcγRIIa (R), FcγRIIa (H), and FcγRIIIa, respectively.
(§2) Analysis of interaction between objective antibody and the FcγR was carried out using Biacore T100 (GE Healthcare). HBS-EP+ (GE Healthcare) was used as the running buffer, and the measurement temperature was set to 25° C. Chips produced by immobilizing the antigen peptide by the amine coupling method to a Series S Sencor Chip CM5 (GE Healthcare), or alternatively, chips produced by allowing preliminarily biotinylated antigen peptides to interact with and immobilize onto a Series S Sensor Chip SA (certified) (GE Healthcare) were used. Antibodies of interest were captured onto an antigen peptide-immobilized chip, and allowed to interact to each FcγR diluted with running buffer. To regenerate and repeatedly use the chip, the antibodies captured on the chip were washed off by reacting 10 mM glycine-HCl, pH 1.5.

[2] = molecular target: T1, FcγRIIb extracellular domain with …; experiment: as above
Method: as §1, §2

Binder	He/Con_3a [1]	He/Con_2b [2]
B1	77.3 % of GpH7-A5/GpH7-B3/GpL16-k0 (=100)	110 % of GpH7-A5/GpH7-B3/GpL16-k0 (=100)
B2	74.8 % of GpH7-A5/GpH7-B3/GpL16-k0 (=100)	102 % of GpH7-A5/GpH7-B3/GpL16-k0 (=100)
B3	72.1 % of GpH7-A5/GpH7-B3/GpL16-k0 (=100)	95.7 % of GpH7-A5/GpH7-B3/GpL16-k0 (=100)
B4	75.1 % of GpH7-A5/GpH7-B3/GpL16-k0 (=100)	116 % of GpH7-A5/GpH7-B3/GpL16-k0 (=100)
B5	67.5 % of GpH7-A5/GpH7-B3/GpL16-k0 (=100)	84.7 % of GpH7-A5/GpH7-B3/GpL16-k0 (=100)
B6	74.1 % of GpH7-A5/GpH7-B3/GpL16-k0 (=100)	99.8 % of GpH7-A5/GpH7-B3/GpL16-k0 (=100)
B7	80.2 % of GpH7-A5/GpH7-B3/GpL16-k0 (=100)	116 % of GpH7-A5/GpH7-B3/GpL16-k0 (=100)
B8	73.4 % of GpH7-A5/GpH7-B3/GpL16-k0 (=100)	99.2 % of GpH7-A5/GpH7-B3/GpL16-k0 (=100)
B9	78.6 % of GpH7-A5/GpH7-B3/GpL16-k0 (=100)	111 % of GpH7-A5/GpH7-B3/GpL16-k0 (=100)

From patent US20150344570A1 (published 2015)
